Measurements published in US20220323445A1, “REDUCING IMMUNOGENICITY TO PEGLOTICASE” (Horizon Therapeutics Ireland DAC, priority 2020, published 2022).

Tested on: patients with uncontrolled gout
Test: Health Assessment Questionnaire (HAQ-DI, HAQ pain, HAQ health), open-label study
Format: in vivo, human
Design: key to HAQ-Health, Observed, Median / HAQ-Health, Change from Baseline, Median: 0-100 scale; 0 = very well, 100 = very poor health; key to HAQ-DI, Observed, Median / HAQ-DI, Change from Baseline, Median: HAQ-DI scale 0-3; 0 = no difficulty, 3 = unable to do
Conditions: mITT
Experimental: Quality-of-Life Assessment: The HAQ was administered at the Screening and Week −4 or week −6 (prior to the first dose of MTX) Visits during the MTX Run-in Period for the open-label and randomized studies, respectively; prior to pegloticase infusion at the Day 1 and Weeks 14, 24 and 36 Visits or at the Day 1 and weeks 6, 14, 20, 24, 30, 36, and 44 visits during the Pegloticase+IMM Period for the open-label and randomized studies, respectively; at the End of Pegloticase Infusions Visit (if applicable), the Week 52/End of Study/Early Termination Visit and the Post Treatment Periods 3 and 6 Month Follow-up Visits (open-label study). The HAQ-DI is a self-report functional status instrument that can be filled out by a subject in less than 5 minutes and requires 1 minute to score. The index measures disability over the past week by asking a total of 20 questions covering 8 domains of function: dressing and grooming, arising, eating, walking, hygiene, reach, grip, and usual activities. There are at least 2 questions in each domain and the 8 domains represent a comprehensive set of functional activities. The HAQ-DI is calculated by scoring the answer to each question in the HAQ from 0 to 3, with 0 representing the ability to do without any difficulty, and 3 representing inability to do. Any activity that requires assistance from another individual or requires the use of an assistive device raises a 0 or 1 score to a 2. The highest score for each of the 8 domains is summed (range from 0 to 24) and divided by 8 to yield, on a scale with 25 possible values, a Functional Disability Index with a range from 0 to 3. The disability index is based on the number of domains answered and is computed only if the subject completes answers to at least 6 domains. The HAQ pain scale asks subjects to record how much pain they have had in the past week on a scale of 0 to 100, where zero represents “no pain” and 100 represents “severe pain”. The HAQ health scale is a measure of overall health. Subjects are asked to rate how well they are doing on a score of 0 to 100, where zero represents “very well” and 100 represents “very poor” health.

[1] = Day 1 vs Methotrexate Baseline, n=13
[2] = Early Termination Visit vs Methotrexate Baseline, n=3
[3] = Early Termination Visit vs Pegloticase Baseline, n=3
[4] = End of Pegloticase Infusions Visit vs Methotrexate Baseline, n=2
[5] = End of Pegloticase Infusions Visit vs Pegloticase Baseline, n=2
[6] = End of Pegloticase Infusions Visit, n=2
[7] = Week 14 vs Methotrexate Baseline, n=14
[8] = Week 14 vs Pegloticase Baseline, n=14
[9] = Week 24 vs Methotrexate Baseline, n=11
[10] = Week 24 vs Pegloticase Baseline, n=11
[11] = Week 36 vs Methotrexate Baseline, n=9
[12] = Week 36 vs Pegloticase Baseline, n=9
[13] = Week 52/ET vs Methotrexate Baseline, n=3
[14] = Week 52/ET vs Pegloticase Baseline, n=3

B1: pegloticase (protein)
chain: TYKKNDEVEFVRTGYGKDMIKVLHIQRDGKYHSIKEVATTVQLTLSSKKDYLHGDNSDVIPTDTIKNTVNVLAKFKGIKSIETFAVTICEHFLSSFKHVIRAQVYVEEVPWKRFEKNGVKHVHAFIYTPTGTHFCEVEQIRNGPPVIHSGIKDLKVLKTTQSGFEGFIKDQFTTLPEVKDRCFATQVYCKWRYHQGRDVDFEATWDTVRSIVLQKFAGPYDKGEYSPSVQKTLYDIQVLTLGQVPEIEDMEISLPNIHYLNIDMSKMGLINKEEVLLPLDNPYGKITGTVKRKLSSRL
modifications: monomethoxy PEG conjugated; Krystexxa Sequence
notes: covalent conjugate of uricase produced by a genetically modified strain of Escherichia coli and monomethoxypoly (ethylene glycol)
HAQ-DI, Observed, Mean (SD) (Day 1, n=13): 0.8 (0.77) | HAQ-DI, Observed, Median (Day 1, n=13): 0.5 | HAQ-Health, Observed, Mean (SD) (Day 1, n=13): 37.8 (27.06) | HAQ-Health, Observed, Median (Day 1, n=13): 25.0 | HAQ-Pain, Observed, Mean (SD) (Day 1, n=13): 42.5 (22.24) | HAQ-Pain, Observed, Median (Day 1, n=13): 40.0 | HAQ-DI, Change from Baseline, Mean (SD) [1]: 0.1 (0.27) | HAQ-DI, Change from Baseline, Median [1]: 0.0 | HAQ-Health, Change from Baseline, Mean (SD) [1]: −8.8 (38.29) | HAQ-Health, Change from Baseline, Median [1]: 10.0 | HAQ-Pain, Change from Baseline, Mean (SD) [1]: 2.3 (19.93) | HAQ-Pain, Change from Baseline, Median [1]: 0.0 | HAQ-DI, Change from Baseline, Mean (SD) [2]: 0.2 (0.90) | HAQ-DI, Change from Baseline, Median [2]: −0.3 | HAQ-Health, Change from Baseline, Mean (SD) [2]: −0.7 (16.77) | HAQ-Health, Change from Baseline, Median [2]: 8.0 | HAQ-Pain, Change from Baseline, Mean (SD) [2]: 19.0 (36.51) | HAQ-Pain, Change from Baseline, Median [2]: 7.0 | HAQ-DI, Change from Baseline, Mean (SD) [3]: 0.2 (0.56) | HAQ-DI, Change from Baseline, Median [3]: 0.1 | HAQ-Health, Change from Baseline, Mean (SD) [3]: −11.7 (62.52) | HAQ-Health, Change from Baseline, Median [3]: −10.0 | HAQ-Pain, Change from Baseline, Mean (SD) [3]: 0.0 (45.83) | HAQ-Pain, Change from Baseline, Median [3]: −10.0 | HAQ-DI, Observed, Mean (SD) (Early Termination Visit, n=3): 0.7 (0.51) | HAQ-DI, Observed, Median (Early Termination Visit, n=3): 0.6 | HAQ-Health, Observed, Mean (SD) (Early Termination Visit, n=3): 28.3 (40.72) | HAQ-Health, Observed, Median (Early Termination Visit, n=3): 10.0 | HAQ-Pain, Observed, Mean (SD) (Early Termination Visit, n=3): 46.7 (40.41) | HAQ-Pain, Observed, Median (Early Termination Visit, n=3): 40.0 | HAQ-DI, Change from Baseline, Mean (SD) [4]: −0.1 (0.35) | HAQ-DI, Change from Baseline, Median [4]: −0.1 | HAQ-Health, Change from Baseline, Mean (SD) [4]: −80.0 (0.00) | HAQ-Health, Change from Baseline, Median [4]: −80.0 | HAQ-Pain, Change from Baseline, Mean (SD) [4]: 2.5 (74.25) | HAQ-Pain, Change from Baseline, Median [4]: 2.5 | HAQ-DI, Change from Baseline, Mean (SD) [5]: −0.1 (0.35) | HAQ-DI, Change from Baseline, Median [5]: −0.1 | HAQ-Health, Change from Baseline, Mean (SD) [5]: −45.0 (49.50) | HAQ-Health, Change from Baseline, Median [5]: −45.0 | HAQ-Pain, Change from Baseline, Mean (SD) [5]: 2.5 (74.25) | HAQ-Pain, Change from Baseline, Median [5]: 2.5 | HAQ-DI, Observed, Mean (SD) [6]: 0.1 (0.18) | HAQ-DI, Observed, Median [6]: 0.1 | HAQ-Health, Observed, Mean (SD) [6]: 0.0 (0.00) | HAQ-Health, Observed, Median [6]: 0.0 | HAQ-Pain, Observed, Mean (SD) [6]: 40.0 (56.57) | HAQ-Pain, Observed, Median [6]: 40.0 | HAQ-DI, Observed, Mean (SD) (Week 14, n=14): 0.5 (0.41) | HAQ-DI, Observed, Median (Week 14, n=14): 0.5 | HAQ-Health, Observed, Mean (SD) (Week 14, n=14): 36.6 (33.87) | HAQ-Health, Observed, Median (Week 14, n=14): 16.5 | HAQ-Pain, Observed, Mean (SD) (Week 14, n=14): 27.1 (26.25) | HAQ-Pain, Observed, Median (Week 14, n=14): 15.0 | HAQ-DI, Change from Baseline, Mean (SD) [7]: −0.2 (0.77) | HAQ-DI, Change from Baseline, Median [7]: 0.0 | HAQ-Health, Change from Baseline, Mean (SD) [7]: −12.5 (36.79) | HAQ-Health, Change from Baseline, Median [7]: −5.0 | HAQ-Pain, Change from Baseline, Mean (SD) [7]: −13.9 (30.48) | HAQ-Pain, Change from Baseline, Median [7]: −12.5 | HAQ-DI, Change from Baseline, Mean (SD) [8]: −0.3 (0.80) | HAQ-DI, Change from Baseline, Median [8]: 0.0 | HAQ-Health, Change from Baseline, Mean (SD) [8]: −4.3 (43.82) | HAQ-Health, Change from Baseline, Median [8]: −1.0 | HAQ-Pain, Change from Baseline, Mean (SD) [8]: −16.0 (30.65) | HAQ-Pain, Change from Baseline, Median [8]: −12.5 | HAQ-DI, Observed, Mean (SD) (Week 24, n=11): 0.2 (0.33) | HAQ-DI, Observed, Median (Week 24, n=11): 0.1 | HAQ-Health, Observed, Mean (SD) (Week 24, n=11): 21.4 (26.65) | HAQ-Health, Observed, Median (Week 24, n=11): 10.0 | HAQ-Pain, Observed, Mean (SD) (Week 24, n=11): 25.4 (27.50) | HAQ-Pain, Observed, Median (Week 24, n=11): 20.0 | HAQ-DI, Change from Baseline, Mean (SD) [9]: −0.5 (0.74) | HAQ-DI, Change from Baseline, Median [9]: −0.1 | HAQ-Health, Change from Baseline, Mean (SD) [9]: −33.2 (36.01) | HAQ-Health, Change from Baseline, Median [9]: −40.0 | HAQ-Pain, Change from Baseline, Mean (SD) [9]: −19.2 (35.13) | HAQ-Pain, Change from Baseline, Median [9]: −10.0 | HAQ-DI, Change from Baseline, Mean (SD) [10]: −0.6 (0.85) | HAQ-DI, Change from Baseline, Median [10]: −0.1 | HAQ-Health, Change from Baseline, Mean (SD) [10]: −19.7 (43.38) | HAQ-Health, Change from Baseline, Median [10]: −10.0 | HAQ-Pain, Change from Baseline, Mean (SD) [10]: −16.7 (38.53) | HAQ-Pain, Change from Baseline, Median [10]: −10.0 | HAQ-DI, Observed, Mean (SD) (Week 36, n=9): 0.3 (0.49) | HAQ-DI, Observed, Median (Week 36, n=9): 0.1 | HAQ-Health, Observed, Mean (SD) (Week 36, n=9): 27.3 (35.18) | HAQ-Health, Observed, Median (Week 36, n=9): 10.0 | HAQ-Pain, Observed, Mean (SD) (Week 36, n=9): 21.0 (27.60) | HAQ-Pain, Observed, Median (Week 36, n=9): 10.0 | HAQ-DI, Change from Baseline, Mean (SD) [11]: −0.5 (0.80) | HAQ-DI, Change from Baseline, Median [11]: 0.0 | HAQ-Health, Change from Baseline, Mean (SD) [11]: −27.7 (42.59) | HAQ-Health, Change from Baseline, Median [11]: −10.0 | HAQ-Pain, Change from Baseline, Mean (SD) [11]: −22.9 (28.41) | HAQ-Pain, Change from Baseline, Median [11]: −20.0 | HAQ-DI, Change from Baseline, Mean (SD) [12]: −0.5 (0.86) | HAQ-DI, Change from Baseline, Median [12]: −0.1 | HAQ-Health, Change from Baseline, Mean (SD) [12]: −16.2 (50.72) | HAQ-Health, Change from Baseline, Median [12]: −10.0 | HAQ-Pain, Change from Baseline, Mean (SD) [12]: −19.9 (20.25) | HAQ-Pain, Change from Baseline, Median [12]: −20.0 | HAQ-DI, Change from Baseline, Mean (SD) [13]: −0.6 (0.87) | HAQ-DI, Change from Baseline, Median [13]: −0.1 | HAQ-Health, Change from Baseline, Mean (SD) [13]: −16.7 (59.23) | HAQ-Health, Change from Baseline, Median [13]: 15.0 | HAQ-Pain, Change from Baseline, Mean (SD) [13]: −42.7 (18.04) | HAQ-Pain, Change from Baseline, Median [13]: −44.0 | HAQ-DI, Change from Baseline, Mean (SD) [14]: −0.8 (1.08) | HAQ-DI, Change from Baseline, Median [14]: −0.1 | HAQ-Health, Change from Baseline, Mean (SD) [14]: 23.3 (54.85) | HAQ-Health, Change from Baseline, Median [14]: 5.0 | HAQ-Pain, Change from Baseline, Mean (SD) [14]: −41.0 (25.24) | HAQ-Pain, Change from Baseline, Median [14]: −29.0 | HAQ-DI, Observed, Mean (SD) (Week 52/ET, n=3): 0.4 (0.29) | HAQ-DI, Observed, Median (Week 52/ET, n=3): 0.3 | HAQ-Health, Observed, Mean (SD) (Week 52/ET, n=3): 60.0 (48.22) | HAQ-Health, Observed, Median (Week 52/ET, n=3): 80.0 | HAQ-Pain, Observed, Mean (SD) (Week 52/ET, n=3): 4.0 (5.20) | HAQ-Pain, Observed, Median (Week 52/ET, n=3): 1.0
